From patent US20240392013A1 (STELEXIS THERAPEUTICS, published 2024)

T1: IL1RAP on HEK-Blue IL1β / HEK-Blue IL33 reporter cells (UniProt Q9NPH3 21-570, limits assumed)
T1 sequence (looked up): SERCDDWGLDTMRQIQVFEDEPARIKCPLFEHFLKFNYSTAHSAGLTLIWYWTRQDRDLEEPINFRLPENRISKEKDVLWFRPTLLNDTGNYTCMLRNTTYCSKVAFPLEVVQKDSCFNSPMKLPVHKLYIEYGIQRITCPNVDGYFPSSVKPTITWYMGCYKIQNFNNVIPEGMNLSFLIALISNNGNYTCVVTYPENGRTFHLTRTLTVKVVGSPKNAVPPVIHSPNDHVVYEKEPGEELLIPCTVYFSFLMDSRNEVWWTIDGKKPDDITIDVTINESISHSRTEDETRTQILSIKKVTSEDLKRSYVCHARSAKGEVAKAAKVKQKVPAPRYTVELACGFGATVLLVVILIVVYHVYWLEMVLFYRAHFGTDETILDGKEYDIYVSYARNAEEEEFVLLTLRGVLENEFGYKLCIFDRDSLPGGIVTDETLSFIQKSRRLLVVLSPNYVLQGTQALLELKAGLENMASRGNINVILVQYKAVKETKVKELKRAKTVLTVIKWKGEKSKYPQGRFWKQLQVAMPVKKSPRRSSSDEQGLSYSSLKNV

T2: recombinant mouse IL1RAP protein (Sino Biological, Cat #52657-M08H) (mouse, UniProt Q61730 21-359)
T2 construct: Bought protein
T2 sequence (looked up): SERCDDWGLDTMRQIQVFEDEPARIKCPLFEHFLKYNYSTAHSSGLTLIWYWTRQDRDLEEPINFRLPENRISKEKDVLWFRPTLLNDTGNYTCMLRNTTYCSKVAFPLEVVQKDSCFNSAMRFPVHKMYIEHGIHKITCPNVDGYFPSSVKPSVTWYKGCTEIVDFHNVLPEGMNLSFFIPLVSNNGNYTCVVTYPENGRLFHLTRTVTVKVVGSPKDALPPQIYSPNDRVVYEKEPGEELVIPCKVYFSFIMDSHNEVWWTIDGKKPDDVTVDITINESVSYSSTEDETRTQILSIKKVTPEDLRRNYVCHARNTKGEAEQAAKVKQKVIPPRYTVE

T3: cyIL1RAP-His (Lake Pharma) (cynomolgus monkey, UniProt A0A2K5X5J5 21-367)
T3 construct: Bought protein (Lake Pharma, lot 16205819371); also called cynomolgus IL1RAP; monkey IL1RAP; not shown: His tag
T3 sequence: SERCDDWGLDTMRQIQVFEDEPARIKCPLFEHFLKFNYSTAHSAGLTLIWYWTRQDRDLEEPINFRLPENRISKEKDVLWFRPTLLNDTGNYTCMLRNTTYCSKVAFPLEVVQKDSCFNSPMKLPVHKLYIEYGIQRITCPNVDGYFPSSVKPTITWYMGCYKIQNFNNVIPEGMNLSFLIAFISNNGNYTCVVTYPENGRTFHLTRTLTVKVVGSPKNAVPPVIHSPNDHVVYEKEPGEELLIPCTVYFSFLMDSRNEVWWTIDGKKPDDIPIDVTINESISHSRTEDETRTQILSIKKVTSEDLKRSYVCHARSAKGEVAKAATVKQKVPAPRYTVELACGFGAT

T4: recombinant human IL1RAP protein, extracellular domain His-tagged (Sino Biological, Cat #10121-H08H) (human, UniProt Q9NPH3 21-367)
T4 construct: extracellular domain; Bought protein; The Octet analyte is printed as huIL1RAP-His (Sino Biological, lot MB08MA1301) without a catalogue number; also called huIL1RAP-His; hIL1RAP; not shown: His tag
T4 sequence (looked up): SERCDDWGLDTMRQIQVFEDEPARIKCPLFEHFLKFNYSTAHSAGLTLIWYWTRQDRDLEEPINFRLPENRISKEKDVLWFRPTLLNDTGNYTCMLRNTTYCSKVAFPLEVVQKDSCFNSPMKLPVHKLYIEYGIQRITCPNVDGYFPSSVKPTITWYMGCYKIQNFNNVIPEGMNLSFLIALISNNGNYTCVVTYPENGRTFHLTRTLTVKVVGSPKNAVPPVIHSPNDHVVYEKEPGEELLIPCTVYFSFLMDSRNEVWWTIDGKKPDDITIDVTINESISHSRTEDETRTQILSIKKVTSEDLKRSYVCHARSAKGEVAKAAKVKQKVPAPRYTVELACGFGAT


Tests used:
[1] = target: T1, IL1RAP on HEK-Blue IL1β / HEK-Blue IL33 …; assay: cell-based or functional assay
[2] = target: T1, IL1RAP on HEK-Blue IL1β / HEK-Blue IL33 …; assay: cell-based or functional assay; remark: listed apart in the source
[3] = target: T2, recombinant mouse IL1RAP protein (Sino …); assay: cell-free ELISA, mouse IL1RAP coated; data not shown
Protocol: Recombinant human or mouse IL1RAP proteins (Sino Biological, Beijing, China; Cat #10121-H08H and Sino Biological, Cat #52657-M08H respectively) were diluted in PBS, pH 7.4 at concentration of 1 μg/ml, coated on high-binding 384-well clear plates and incubated overnight at 4° C. Following, plates were washed 3× with 0.05% Tween-20 in PBS, pH 7.5 and then blocked with 1% BSA in PBS for 1 hour at room temperature. After 3× washes, wells were incubated with each antibody at the highest concentration of 100 nM followed by seven serial half log dilutions (in 1% BSA and 0.05% Tween-20 in PBS) for 1 hour at room temperature. Plates were then washed 3× and incubated with […] detection antibody (Medna, TX, USA; Cat #D8212, 0.5 μg/ml diluted in 0.02% Tween-20 in PBS). After 5× washes, Supersignal ELISA Pico substrate (Thermofisher, MA, USA; Cat #37069) was applied to wells and chemiluminescent signal was read on Sprectramax L for 200 ms/well. Similarly, detection with specific κ and λ antibodies was conducted to define light chain isotyping.

[4] = target: T3, cyIL1RAP-His (Lake Pharma); assay: Octet BLI; mAb captured on anti-mouse IgG Fc sensor; cyIL1RAP-His analyte
Protocol: (§1) Antibodies were diluted in kinetics buffer (0.1% BSA, 0.02% Tween-20 and 0.05% NaN₃ in PBS) and loaded onto 16 channel anti-mouse IgG Fc capture sensors (AMC, Cat #2001073; Sartorius, Göttingen, Germany). Human, huIL1RAP-His (Sino Biological, lot: MB08MA1301), and monkey, cyIL1RAP-His (Lake Pharma, NY, USA; lot:16205819371) proteins were titrated starting from the highest concentration of 100 nM and followed by 50 nM and 25 nM. Purified antibodies were loaded at 5 μg/ml in kinetics buffer. The experimental parameters selected to determine the kinetic constants were Baseline for 60 s, Loading of antibody to sensor for 180 s, Association of analyte to antibody for 120 s, Dissociation for 1200 s and Regeneration in 10 mM Glycine pH 1.7 for 4×30 s.
(§2) Regeneration cycle tracking was selected for 12 cycles. Binding to human and cynomolgus IL1RAP was measured and KD (M) kinetics were calculated. Also, the disassociation rate (Kdis) (1/s) and association rate (Kon) (1/Ms) kinetics were calculated (data not shown).

[5] = target: T4, recombinant human IL1RAP protein, …; assay: Octet BLI; mAb captured on anti-mouse IgG Fc sensor; huIL1RAP-His analyte
Protocol: as §1, §2

Binder | IC50, HEK-BlueIL1β NFκB Reporter Assay [1] | Max % Inhibition at 200 nM, HEK-BlueIL1β NFκB Reporter Assay [1] [%] | IC50, HEK-BlueIL33 NFκB Reporter Assay [2] | Max % Inhibition at 200 nM, HEK-BlueIL33 NFκB Reporter Assay [2] [%] | binding result [3] | Kd [4] [nM] | Response [4] | koff [4] [s⁻¹] | kon [4] [M⁻¹ s⁻¹] | Kd [5] [nM] | Response [5] | koff [5] [s⁻¹] | kon [5] [M⁻¹ s⁻¹]
STLX2021 (antibody, V domains shown, Purified from hybridoma of immunized Alivamab mice; intact IgG; captured on anti-mouse IgG Fc sensors in Octet; lambda light chain; also called 74804_21D11A) VH: EVQVVESGGGLVKPGGSLRLSCAASGFIFSKAWMSWVRQAPGKGLEWVGRIKSKTDGGTTDYAAPVKGRFTISRDDSKNTLYLQMNSLKTEDTAVYYCTTGGYVFDYWGQGALVTVSS VL: not shown | 5.32e-10 M (implied; unit not printed) | 101 | 3.54e-09 M (implied; unit not printed) | 85 | no binding (tested: 100 nM) | 10.2 | 0.232 | 0.00259 | 254000 | 2.19 | 0.249 | 0.000478 | 218000
STLX2016 (antibody, V domains shown, Purified from hybridoma of immunized Alivamab mice; intact IgG; captured on anti-mouse IgG Fc sensors in Octet; lambda light chain; also called 74804_16M09A) VH: QVQLQESGPGLVKPSETLSLTCTVSGGSISSYFWNWIRQPPGKGLEWIGYGHYSGNSNHNPSLKSRVTISVDMSKNQFSLKMSSVTAADTAMYYCAREGLHDAFDIWGQGTMVTVSS VL: not shown | 8.05e-10 M (implied; unit not printed) | 100 | 7.66e-09 M (implied; unit not printed) | 76 | no binding (tested: 100 nM) | 3.94 | 0.199 | 0.004 | 1.01e+06 | 0.834 | 0.257 | 0.000411 | 493000
STLX2030 (antibody, V domains shown, Purified from hybridoma of immunized Alivamab mice; intact IgG; captured on anti-mouse IgG Fc sensors in Octet; kappa light chain; also called 74804_30O16A) VH: QVQLVQSGAEVKRPGASVKVSCKASGYTFTGYYMHWVRQAPGQGLEWMGWINPYSGGTDYAQKFQDRVTMTRDTSISTAYMELSRLRSDDTAVYYCARSYYYYGMDVWGQGITVTVSS VL: not shown | 2.31e-09 M (implied; unit not printed) | 98 | 1.24e-08 M (implied; unit not printed) | 76 | no binding (tested: 100 nM) | 2.59 | 0.169 | 0.000369 | 143000 | 2.24 | 0.153 | 0.000359 | 160000
STLX2045 (antibody, V domains shown, Purified from hybridoma of immunized Alivamab mice; intact IgG; captured on anti-mouse IgG Fc sensors in Octet; kappa light chain; also called 74804_45C18A) VH: EVQLVESGGGLVKPGGSLRLACAATGFTFSNVWMSWVRQGSGKGLEWVGRIKSKADGGTIDYAAPVKGRFTISRDDSKNTLYLQMNSLKTEDTAMYYCTTGELLGFDYWGQGTLVTVSS VL: DIVMTQSPLSLPVTPGEPASISCRSGQSLLHSNGFNCLAWYLQKPGQSPQLLIYLGSNRASGVPDRFSGSGSGTDFTLKISRVEAEDVGVYYCMQTLQTPITFGQGTRLEIK | 1.93e-10 M (implied; unit not printed) | 100 | 1.37e-09 M (implied; unit not printed) | 98 | no binding (tested: 100 nM) | 0.863 | 0.277 | 0.000291 | 338000 | 0.648 | 0.261 | 0.000273 | 422000

Continued by falling Kd [4], values first:

IC50, HEK-BlueIL1β NFκB Reporter Assay [1] | Max % Inhibition at 200 nM, HEK-BlueIL1β NFκB Reporter Assay [1] [%] | IC50, HEK-BlueIL33 NFκB Reporter Assay [2] | Max % Inhibition at 200 nM, HEK-BlueIL33 NFκB Reporter Assay [2] [%] | binding result [3] | Kd [4] [nM] | Response [4] | koff [4] [s⁻¹] | kon [4] [M⁻¹ s⁻¹] | Kd [5] [nM] | Response [5] | koff [5] [s⁻¹] | kon [5] [M⁻¹ s⁻¹] | Binder
1.96e-09 M (implied; unit not printed) | 100 | 8.31e-09 M (implied; unit not printed) | 86 | no binding (tested: 100 nM) | 2.82 | 0.242 | 0.00107 | 380000 | 2.13 | 0.229 | 0.000747 | 350000 | STLX2027 (antibody, V domains shown, Purified from hybridoma of immunized Alivamab mice; intact IgG; captured on anti-mouse IgG Fc sensors in Octet; lambda light chain; also called 74804_27I24A) VH: EVQLVESGGGLVKPGGSLRLSCAASGFTFITYSMNWVRQAPGKGLEWVSSISSISSYIYYADSVKGRFTISRDNAKNSLYLQMDSLRAEDSAVYYCAREGIVGPTGYFDSWGQGTLVTVSS VL: QSVLTQPPSVSAAPGQKVTISCSGSSSNIGNHYVSWYQQLPGTAPKLLIYDNNKRPSGIPDRFSGSKSGTSATLGITGLQTGDEADYYCGTWDSRLSAYWVFGGGTKLTVL
7.92e-10 M (implied; unit not printed) | 98 | 8.12e-09 M (implied; unit not printed) | 73 | no binding (tested: 100 nM) | 1.68 | 0.223 | 0.00206 | 1.23e+06 | 1.23 | 0.268 | 0.000684 | 558000 | STLX2044 (antibody, V domains shown, Purified from hybridoma of immunized Alivamab mice; intact IgG; captured on anti-mouse IgG Fc sensors in Octet; lambda light chain; also called 74804_44J14A) VH: QVQLQESGPGLVKPSETLSLTCTVSGGSVFSYFWNWIRQPPVKGLEWIGYIDHSGGTNYNPSLKSRVTMSVDTSKNQFSLKLSSVTAADTAVYYCAREGLHDAFDIWGQGTLVTVSS VL: not shown
1.72e-09 M (implied; unit not printed) | 101 | 1.7e-08 M (implied; unit not printed) | 87 | no binding (tested: 100 nM) | 1.23 | 0.342 | 0.000413 | 334000 | 0.803 | 0.308 | 0.000233 | 290000 | STLX2001N (antibody, V domains shown, Purified from hybridoma of immunized Alivamab mice; intact IgG; captured on anti-mouse IgG Fc sensors in Octet; kappa light chain; also called 74804_01N02A) VH: EVQLVQSGAEVKKPGESLKISCKGSGYSFTSYWIVWVRQMPGKGLEWMGFIYPGNSDTRYSPSFQGQVTISADQSISTAYLQWSSLKASDTATYYCARGGSYYLDYWGQGTLVTVSS VL: not shown
